The text below walks through data of article PMC2814116.

In this experiment the target is Phaseolus coccineus PCNA1 (PcPCNA1), recombinant (Phaseolus coccineus). The experiment is described as follows: SEC.

Consider “Phaseolus coccineus PCNA1 (PcPCNA1), recombinant (natural protein)”, for which the stoichiometry N came out at 3.
